This is an account of results in patent publication US20150232562A1 (Ablynx, published 2015).

In assay [1] the target is T1, extracellular domain of HER2 (HER2-ECD), Flag- and polyhistidine-tagged (human, UniProt P04626 23-652).
T1 construct: extracellular domain; made in HEK293T cells, purified by IMAC and SEC; also called ErbB2 ECD; not shown: N-terminal Flag tag after the Ig-kappa leader; C-terminal polyhistidine tag
Nature of the assay: SPR, HER2-ECD over immobilised Nanobodies.

Assay [2] has as its target T1, extracellular domain of HER2 …. Briefly: SPR, 100 nM HER2-ECD over immobilised Nanobody (about 90 RU).
Assay [3] shares this target. Nature of the assay: SPR, 1000 nM HER2-ECD over immobilised Nanobody (about 90 RU). On the technique in general: Surface plasmon resonance follows binding to a sensor surface in real time, without labels.
The target in assay [4] is T2, recombinant human ErbB2/Fc chimera (human, UniProt P04626 23-652).
T2 construct: bought from R&D Systems; also called rhErbB2-Fc; rhErb2-Fc; Fc part of the bought chimera not given; not described
Nature of the assay: ELISA, coated ErbB2/Fc. In general terms: In an ELISA, binding on a coated surface is turned into a signal by an enzyme label.

Assay [5] deals with T3, Epidermal Growth Factor Receptor 2 (HER2) (human, UniProt P04626 23-1255).
T3 construct: whole, on cells; the cell line is named under assay; also called ErbB-2; ERBB2
Briefly: flow cytometry on SKBR3 cells, periplasmic extract.

Assay [6] addresses T2, recombinant human ErbB2/Fc chimera. Briefly: SPR (Biacore 3000), purified Nanobody over immobilised rhErbB2-Fc.
The target in assay [7] is T3, Epidermal Growth Factor Receptor 2 …. Nature of the assay: cell-based or functional assay.
The target of assay [8] is T2, recombinant human ErbB2/Fc chimera. Briefly: SPR (Biacore 3000), periplasmic extract over immobilised rhErbB2-Fc.
Assay [9] shares this target. Nature of the assay: SPR (Biacore T100), Nanobody over immobilised rhErbB2-Fc.
Assay [10] addresses T1, extracellular domain of HER2 …. Briefly: SPR, 100 nM HER2-ECD over immobilised Nanobody; row label prints 5F7, table title, text and FIG. 19 say 47D5.
The target is the same in assay [11]. Nature of the assay: SPR, 1000 nM HER2-ECD over immobilised Nanobody; row label prints 5F7, table title, text and FIG. 19 say 47D5.

Substitutions are numbered along the chain they refer to.

B1: 2D3-35GS-47D5 (bispecific antibody)
chain: EVQLVESGGSLVQPGGSLRLSCAASGFTFDDYAMSWVRQVPGKGLEWVSSINWSGTHTDYADSVKGRFTISRNNANNTLYLQMNSLKSEDTAVYYCAKNWRDAGTTWFEKSGSAGQGTQVTVSSGGGGSGGGGSGGGGSGGGGSGGGGSGGGGSGGGGSEVQLVESGGGLVQPGGSLRLSCAASGSIFGFNDMAWYRQAPGKQRELVALISRVGVTSSADSVKGRFTISRVNAKDTVYLQMNSLKPEDTAVYYCYMDQRLDGSTLAYWGQGTQVTVSS
notes: biparatopic Nanobody; C-term myc-His6 tag; also called 2D3-47D5
In the case of B1, the “fold lower koff than on each of the 2D3 and 47D5 surfaces” value in [1] amounted to 25 fold. The koff in assay [2] is 8.07e-05 s⁻¹; in assay [3], 5.45e-05 s⁻¹.

B2: 2G4 (VHH)
VHH: EVQLVESGGGLVQAGGSLRLSCAASGNIFSHNAMGWYRQAPGKQRELVTYITINGIANYVDSVKGRFTISRDNTKNTMYLQMVSLKPEDTAVYYCNVGGREYSGVYYYREYWGQGTQVTVSS
notes: C-term myc-His6 tag
B2: the binding result in [4] and in assay [5] was “binds” in each case.

B3: 27E7-35GS-2D3 (bispecific antibody)
chain: EVQLVESGGGLVQAGGSLRLSCAASGITFRRYDMGWYRQFPGKERELVATILSEGDTNYVDPVKGRFTISRDNAKNTVYLQMNDLKPEDTAVYYCNGVWRAIGRTYWGQGTQVTVSSGGGGSGGGGSGGGGSGGGGSGGGGSGGGGSGGGGSEVQLVESGGSLVQPGGSLRLSCAASGFTFDDYAMSWVRQVPGKGLEWVSSINWSGTHTDYADSVKGRFTISRNNANNTLYLQMNSLKSEDTAVYYCAKNWRDAGTTWFEKSGSAGQGTQVTVSS
notes: biparatopic Nanobody; C-term myc-His6 tag
Consider B3, for which, in assay [6], the koff is around 0.0001 s⁻¹.

B4: 2A5 (VHH)
VHH: EVQLVESGGGLVQPGGSLRLSCATSGFTFDDYAMTWVRQAPGKGLEWVSSINWSGTHTDYTDSVKGRFTISRNNANNTLYLQMNSLKSEDTAVYYCAKNWGDAGTTWFEKSGSAGQGTQVTVSS
notes: C-term myc-His6 tag
For B4, the “inhibition of SKBR3 cell proliferation ([3H]-thymidine), 50 nM Nanobody” value (“inhibition of SKBR3 cell proliferation” below) in [7] was around 18%. Moreover, in [8], the koff was found to be 0.00142 s⁻¹.

B5: 2D3 (VHH)
VHH: B4 VHH with G10S, T24A, T35S, A40V, T61A, G101R
notes: C-term myc-His6 tag; also called NB-2D3; Nb-2D3
Take B5: the “inhibition of SKBR3 cell proliferation” value in [7] was around 30%. In addition, in [9], the Kd was determined as 1.09 nM. The koff was 0.00148 s⁻¹ in assay [9], 0.0021 s⁻¹ in [2], around 0.001 s⁻¹ in assay [6] and 0.00151 s⁻¹ in assay [3]. Further, in assay [9], the kon came to 1.36e+06 M⁻¹ s⁻¹.

B6: 2A4 (VHH)
VHH: EVQLVESGGGLVQPGGSLRLSCAASGFIFDDYAMSWVRQAPGKGLEWVSAINWSGSHRNYADSVKGRFTISRDNAKKTVYLQMNSLQSEDTAVYYCGTGWQSTTKNQGYWGQGTQVTVSS
notes: C-term myc-His6 tag
As to B6, the “inhibition of SKBR3 cell proliferation” value in assay [7] was around 30%. The koff in assay [8] turned out to be 0.00205 s⁻¹.

B7: 27A3-35GS-2D3 (bispecific antibody)
chain: EVQLVESGGGLVQAGGSLSLSCVASGRFFSTRVMAWYRQTPGKQREFVASMRGSGSTNYADSVRGRFAISRDNAKNTVYLQMNTLKPEDTAVYYCRDINEDQWGQGTQVTVSSGGGGSGGGGSGGGGSGGGGSGGGGSGGGGSGGGGSEVQLVESGGSLVQPGGSLRLSCAASGFTFDDYAMSWVRQVPGKGLEWVSSINWSGTHTDYADSVKGRFTISRNNANNTLYLQMNSLKSEDTAVYYCAKNWRDAGTTWFEKSGSAGQGTQVTVSS
notes: as for B3
For B7, the koff in [6] was around 0.0001 s⁻¹.

B8: DUMMY-35GS-2D3 (bispecific antibody)
chain: EVQLVESGGGLVQAGGSLRLSCAASGRTFRSYPMGWFRQAPGKEREFVASITGSGGSTYYADSVKGRFTISRDNAKNTVYLQMNSLRPEDTAVYSCAAYIRPDTYLSRDYRKYDYWGQGTQVTVSSGGGGSGGGGSGGGGSGGGGSGGGGSGGGGSGGGGSEVQLVESGGSLVQPGGSLRLSCAASGFTFDDYAMSWVRQVPGKGLEWVSSINWSGTHTDYADSVKGRFTISRNNANNTLYLQMNSLKSEDTAVYYCAKNWRDAGTTWFEKSGSAGQGTQVTVSS
notes: C-term myc-His6 tag; also called dummy-2D3; Dummy-2D3
Take B8: in assay [9], the Kd was 1.77 nM, the koff was 0.00113 s⁻¹ and the kon is 1.16e+06 M⁻¹ s⁻¹. In addition, the koff in assay [6] is around 0.001 s⁻¹.

B9: 2D3-35GS-2D3 (VHH)
chain: EVQLVESGGSLVQPGGSLRLSCAASGFTFDDYAMSWVRQVPGKGLEWVSSINWSGTHTDYADSVKGRFTISRNNANNTLYLQMNSLKSEDTAVYYCAKNWRDAGTTWFEKSGSAGQGTQVTVSSGGGGSGGGGSGGGGSGGGGSGGGGSGGGGSGGGGSEVQLVESGGSLVQPGGSLRLSCAASGFTFDDYAMSWVRQVPGKGLEWVSSINWSGTHTDYADSVKGRFTISRNNANNTLYLQMNSLKSEDTAVYYCAKNWRDAGTTWFEKSGSAGQGTQVTVSS
notes: bivalent 2D3, 35GS linker; C-term myc-His6 tag
As to B9, the koff in [6] is around 0.0001 s⁻¹.

B10: 47D5 (VHH)
VHH: KVQLVESGGGLVQPGGSLRLSCAASGSIFGFNDMAWYRQAPGKQRELVALISRVGVTSSADSVKGRFTISRVNAKDTVYLQMNSLKPEDTAVYYCYMDQRLDGSTLAYWGQGTQVTVSS
notes: C-term myc-His6 tag; also called 47A8; 47A11
Consider B10, for which, in [9], the Kd amounted to 2.23 nM, the koff was determined as 0.000862 s⁻¹ and the kon came to 386000 M⁻¹ s⁻¹. The koff in [10] is 0.00256 s⁻¹. This molecule came in with a koff in assay [11] of 0.00131 s⁻¹.

B11: 2A1 (VHH)
VHH: EVQLVESGGGLVQAGGSLRLSCVASKITFRRYIMDWYRQAPGKQRELVASINSDGSTGYTDSVKGRFTISRDNTKNTLDLQMNSLKPEDTAVYYCHGRWLEIGAEYWGQGTQVTVSS
notes: C-term myc-His6 tag
For B11, the binding result in assay [4] and in assay [5] was “binds” in each case.

B12: 2C3 (VHH)
VHH: EVQLVESGGGLVQPGGSLRLSCVASGFSLDDYGMTWVRQAPGKGLEWVSSINWSGTHTDYADSVKGRFTISRDNAKNTLFLQMNSLRSEDTAVYYCNQGWKIVPTDRTGHGTQVTVSS
notes: C-term myc-His6 tag
As to B12, in assay [7], the “inhibition of SKBR3 cell proliferation” value is around 30%. The dissociation rate constant (koff) in assay [8] was found to be 0.00111 s⁻¹.

B13: 27B7-35GS-2D3 (bispecific antibody)
chain: EVQLVESGGGLVQPGGSLRLSCAASGFTFSSYAMSWVRQAPGKGLEWVSAISSGGGSITTYADSVKGRFTISRDNAKNTLYLQMSSLKPEDTALYYCAKARSSSSYYDFGSWGQGTQVTVSSGGGGSGGGGSGGGGSGGGGSGGGGSGGGGSGGGGSEVQLVESGGSLVQPGGSLRLSCAASGFTFDDYAMSWVRQVPGKGLEWVSSINWSGTHTDYADSVKGRFTISRNNANNTLYLQMNSLKSEDTAVYYCAKNWRDAGTTWFEKSGSAGQGTQVTVSS
notes: biparatopic Nanobody; C-term myc-His6 tag; also called 2B7-35GS-2D3
For B13, the koff in assay [6] is around 0.001 s⁻¹.

B14: 27C3-35GS-2D3 (bispecific antibody)
chain: EVQLVESGGGLVQPGGSLRLSCAASGFTFDDYATSWVRQAPGKGPEWVSAINSGGGSTYYADSVKGRFTISRDNAKNTLYLQMNSLKPEDTAVYYCARPRGSSLYLLEYDYWGQGTQVTVSSGGGGSGGGGSGGGGSGGGGSGGGGSGGGGSGGGGSEVQLVESGGSLVQPGGSLRLSCAASGFTFDDYAMSWVRQVPGKGLEWVSSINWSGTHTDYADSVKGRFTISRNNANNTLYLQMNSLKSEDTAVYYCAKNWRDAGTTWFEKSGSAGQGTQVTVSS
notes: as for B3
B14: in [6], the koff was around 0.001 s⁻¹.

B15: 27H5-35GS-2D3 (bispecific antibody)
chain: EVQLVESGGGLVQAGGSLRLSCAASGFTFDDYGIGWFRQASGKEREGVSCITSSDGSTYYADSVKGRFTISSDNAKNTVYLQMNSLKPEDTAVYYCAALPFVCPSGSYSDYGDEYDYWGQGTQVTVSSGGGGSGGGGSGGGGSGGGGSGGGGSGGGGSGGGGSEVQLVESGGSLVQPGGSLRLSCAASGFTFDDYAMSWVRQVPGKGLEWVSSINWSGTHTDYADSVKGRFTISRNNANNTLYLQMNSLKSEDTAVYYCAKNWRDAGTTWFEKSGSAGQGTQVTVSS
notes: as for B3
As to B15, in [6], the koff is around 0.001 s⁻¹.

B16: 2C5 (VHH)
VHH: EVQLVESGGGLVQAGGSLNLSCVASGIPFSTRTMAWYRQTPGKSRDWVATIRSGTPVYADSVKGRFTVSRDNAKNTLYLRMNSLKSEDSATYTCRAVNADIWGQGTQVTVSS
notes: C-term myc-His6 tag
B16: the binding result in [4] and in assay [5] was “binds” throughout.

B17: 27D1-35GS-2D3 (bispecific antibody)
chain: EVQLVESGGGLVQPGGSLRLSCVASGFSLDDYGMTWVRQAPGKGLEWVSSINWSGTHTDYADSVKGRFTISRDNAKNTLFLQMNSLTPEDTAVYYCNQGWKILPAERRGHGTQVTVSSGGGGSGGGGSGGGGSGGGGSGGGGSGGGGSGGGGSEVQLVESGGSLVQPGGSLRLSCAASGFTFDDYAMSWVRQVPGKGLEWVSSINWSGTHTDYADSVKGRFTISRNNANNTLYLQMNSLKSEDTAVYYCAKNWRDAGTTWFEKSGSAGQGTQVTVSS
notes: as for B3
Turning to B17, the koff in [6] was around 0.0001 s⁻¹.

For orientation: koff means the rate constant with which the complex falls apart. In general, Kd refers to a measure of binding affinity in units of concentration. One may read the kon as a measure of how fast the partners come together.
